Literature values, collected in paper PMC11381810.

Tests used:
[1] = target: syntaxin-1 SNARE motif (Rattus norvegicus) (UniProt P32851); conditions: cited from earlier work
[2] = target: syntaxin-1 dimer SNARE motif (Rattus norvegicus) (UniProt P32851); conditions: cited from earlier work

syntaxin-1 SNARE motif, sequence (P32851 191-253): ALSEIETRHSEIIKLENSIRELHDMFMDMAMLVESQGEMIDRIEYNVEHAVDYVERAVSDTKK
syntaxin-1 dimer SNARE motif, sequence (P32851 191-253): as above

Row | Substance | Kd [1] [µM] | Kd [2] [µM]
1 | syntaxin-1 SNARE motif (from UniProt P32851) | 1.4 | –
2 | syntaxin-1 dimer SNARE motif (from UniProt P32851) | – | 12
